The text below walks through data of patent publication US10562936B2, “Ligands for integrin αvβ6, synthesis and uses thereof” (Technische Universitat Munchen, priority 2015, dated 2020).

Square brackets hold non-standard residues; d marks the D form. Abu = CC[C@H](N)C(=O)O

One experiment has as its target αvβ6 (Homo sapiens, UniProt P06756+P18564). To be noted: from WO 01/05810; cited from earlier work.
For experiment [1], the target named is T1, integrin αvβ8 (soluble integrin) (UniProt P06756 31-992; P26012 43-684).
T1 construct: Only 'soluble integrins' is said
The experiment can be described thus: solid-phase binding assay, internal standard; coated LAP, soluble αvβ8.

Experiment [2] concerns the target T2, integrin αvβ6 (soluble integrin) (UniProt P06756 31-992; P18564 22-707).
T2 construct: Only 'soluble integrins' is said
Kind of experiment: solid-phase binding assay, internal standard; coated LAP, soluble αvβ6.

Experiment [3] concerns the target T3, integrin αvβ3 (soluble integrin) (UniProt P06756 31-992; P05106 27-718).
T3 construct: Only 'soluble integrins' is said
Kind of experiment: solid-phase binding assay, competition; coated vitronectin, soluble αvβ3.

The target of experiment [4] is T2, integrin αvβ6 (soluble integrin). The experiment can be described thus: solid-phase binding assay, competition; coated LAP, soluble αvβ6.
For experiment [5], the target named is T3, integrin αvβ3 (soluble integrin). The experiment can be described thus: ratio of IC50s αvβ6:αvβ3, printed the other way round (6.1 for αvβ6 to 1 for αvβ3).

T3 sequence (P06756 31-992, chain 1 of 2): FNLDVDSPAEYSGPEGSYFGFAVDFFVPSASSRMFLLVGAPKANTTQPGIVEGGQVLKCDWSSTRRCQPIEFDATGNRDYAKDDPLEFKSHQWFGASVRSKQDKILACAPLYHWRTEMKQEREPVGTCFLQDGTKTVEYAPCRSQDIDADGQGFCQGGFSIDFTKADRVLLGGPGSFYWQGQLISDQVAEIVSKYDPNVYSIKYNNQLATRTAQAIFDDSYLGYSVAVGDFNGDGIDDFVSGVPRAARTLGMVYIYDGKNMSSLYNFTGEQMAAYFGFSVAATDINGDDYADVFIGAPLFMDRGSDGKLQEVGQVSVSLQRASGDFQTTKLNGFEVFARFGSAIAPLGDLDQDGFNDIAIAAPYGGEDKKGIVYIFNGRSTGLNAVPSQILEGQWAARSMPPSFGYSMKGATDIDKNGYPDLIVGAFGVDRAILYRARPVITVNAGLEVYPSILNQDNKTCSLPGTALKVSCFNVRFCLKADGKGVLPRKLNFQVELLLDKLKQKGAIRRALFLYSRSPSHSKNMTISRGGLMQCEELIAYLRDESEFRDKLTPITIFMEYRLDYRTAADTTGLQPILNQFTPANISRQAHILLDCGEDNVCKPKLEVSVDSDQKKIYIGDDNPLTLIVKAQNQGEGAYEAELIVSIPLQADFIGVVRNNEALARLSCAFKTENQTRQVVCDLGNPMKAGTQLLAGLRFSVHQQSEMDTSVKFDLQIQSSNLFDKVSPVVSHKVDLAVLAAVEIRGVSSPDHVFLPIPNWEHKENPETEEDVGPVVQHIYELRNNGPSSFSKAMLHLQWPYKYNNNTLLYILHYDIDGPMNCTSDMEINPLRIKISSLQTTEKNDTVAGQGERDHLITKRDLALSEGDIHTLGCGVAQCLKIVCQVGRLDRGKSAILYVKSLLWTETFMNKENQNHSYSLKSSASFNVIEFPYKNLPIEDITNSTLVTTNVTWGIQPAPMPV
T3 sequence (P05106 27-718, chain 2 of 2): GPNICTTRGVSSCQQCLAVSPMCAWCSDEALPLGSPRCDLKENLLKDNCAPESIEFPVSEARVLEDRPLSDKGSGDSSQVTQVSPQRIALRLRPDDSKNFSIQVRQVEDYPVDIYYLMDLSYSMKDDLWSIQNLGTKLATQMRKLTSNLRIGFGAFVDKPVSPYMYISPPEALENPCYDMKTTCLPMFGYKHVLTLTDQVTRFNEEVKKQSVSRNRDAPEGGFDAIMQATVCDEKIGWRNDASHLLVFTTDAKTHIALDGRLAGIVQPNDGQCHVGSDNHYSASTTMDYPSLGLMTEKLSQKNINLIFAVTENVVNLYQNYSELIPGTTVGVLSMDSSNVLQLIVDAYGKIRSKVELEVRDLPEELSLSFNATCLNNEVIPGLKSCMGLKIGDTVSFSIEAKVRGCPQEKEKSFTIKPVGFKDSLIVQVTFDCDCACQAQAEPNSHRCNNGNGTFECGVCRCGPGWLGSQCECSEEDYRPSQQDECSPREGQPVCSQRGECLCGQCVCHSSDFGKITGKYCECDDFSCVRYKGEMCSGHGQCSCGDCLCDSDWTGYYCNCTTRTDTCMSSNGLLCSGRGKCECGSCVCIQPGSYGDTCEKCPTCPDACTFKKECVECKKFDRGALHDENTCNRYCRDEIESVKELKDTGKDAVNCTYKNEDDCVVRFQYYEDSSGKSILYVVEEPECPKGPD
T2 sequence (P06756 31-992, chain 1 of 2): as the sequence (P06756 31-992, chain 1 of 2) above
T2 sequence (P18564 22-707, chain 2 of 2): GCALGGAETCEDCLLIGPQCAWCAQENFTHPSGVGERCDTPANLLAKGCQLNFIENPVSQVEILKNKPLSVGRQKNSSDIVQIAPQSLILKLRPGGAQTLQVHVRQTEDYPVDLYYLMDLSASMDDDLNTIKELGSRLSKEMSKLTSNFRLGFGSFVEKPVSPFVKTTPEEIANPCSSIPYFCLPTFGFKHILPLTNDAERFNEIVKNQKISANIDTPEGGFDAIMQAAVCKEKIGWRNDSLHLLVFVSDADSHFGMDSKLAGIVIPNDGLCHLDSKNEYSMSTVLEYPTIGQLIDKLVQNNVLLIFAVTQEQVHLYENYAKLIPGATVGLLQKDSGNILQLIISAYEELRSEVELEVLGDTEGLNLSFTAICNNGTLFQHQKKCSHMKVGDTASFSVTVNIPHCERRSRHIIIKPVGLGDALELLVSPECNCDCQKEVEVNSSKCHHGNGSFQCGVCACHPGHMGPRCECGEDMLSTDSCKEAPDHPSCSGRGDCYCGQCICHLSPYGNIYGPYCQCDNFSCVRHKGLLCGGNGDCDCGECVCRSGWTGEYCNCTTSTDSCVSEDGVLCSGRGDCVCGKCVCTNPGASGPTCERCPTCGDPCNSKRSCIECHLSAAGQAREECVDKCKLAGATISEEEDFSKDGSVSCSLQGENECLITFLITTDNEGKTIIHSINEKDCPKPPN
αvβ6, sequence (P06756 31-1048): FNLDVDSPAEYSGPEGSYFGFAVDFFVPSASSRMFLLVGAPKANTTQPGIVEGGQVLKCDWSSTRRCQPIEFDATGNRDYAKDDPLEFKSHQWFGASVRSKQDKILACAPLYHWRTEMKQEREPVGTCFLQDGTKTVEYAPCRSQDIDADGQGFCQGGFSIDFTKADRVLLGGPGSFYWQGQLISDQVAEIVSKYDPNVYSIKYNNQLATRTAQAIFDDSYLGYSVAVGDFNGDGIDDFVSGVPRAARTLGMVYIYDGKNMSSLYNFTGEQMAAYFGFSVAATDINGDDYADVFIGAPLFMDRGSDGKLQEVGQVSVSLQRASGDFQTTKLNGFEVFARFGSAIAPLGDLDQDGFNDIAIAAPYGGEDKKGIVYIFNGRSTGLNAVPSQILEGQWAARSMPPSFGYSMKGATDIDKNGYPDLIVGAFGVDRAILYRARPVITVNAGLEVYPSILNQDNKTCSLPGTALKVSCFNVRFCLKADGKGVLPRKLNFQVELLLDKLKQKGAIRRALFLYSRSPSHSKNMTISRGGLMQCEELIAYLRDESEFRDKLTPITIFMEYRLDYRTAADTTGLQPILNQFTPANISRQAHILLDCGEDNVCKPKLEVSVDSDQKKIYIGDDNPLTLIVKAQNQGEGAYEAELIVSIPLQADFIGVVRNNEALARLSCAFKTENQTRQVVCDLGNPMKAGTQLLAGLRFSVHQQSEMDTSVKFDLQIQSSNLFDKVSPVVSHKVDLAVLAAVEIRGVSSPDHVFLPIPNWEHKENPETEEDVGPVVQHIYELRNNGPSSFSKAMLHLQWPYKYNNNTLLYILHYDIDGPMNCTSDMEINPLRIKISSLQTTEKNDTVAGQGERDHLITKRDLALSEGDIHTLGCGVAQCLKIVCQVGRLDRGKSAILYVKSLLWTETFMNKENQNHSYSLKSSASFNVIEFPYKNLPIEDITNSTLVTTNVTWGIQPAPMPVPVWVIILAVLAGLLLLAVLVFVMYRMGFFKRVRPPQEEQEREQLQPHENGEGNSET
αvβ6, sequence (P18564 22-788): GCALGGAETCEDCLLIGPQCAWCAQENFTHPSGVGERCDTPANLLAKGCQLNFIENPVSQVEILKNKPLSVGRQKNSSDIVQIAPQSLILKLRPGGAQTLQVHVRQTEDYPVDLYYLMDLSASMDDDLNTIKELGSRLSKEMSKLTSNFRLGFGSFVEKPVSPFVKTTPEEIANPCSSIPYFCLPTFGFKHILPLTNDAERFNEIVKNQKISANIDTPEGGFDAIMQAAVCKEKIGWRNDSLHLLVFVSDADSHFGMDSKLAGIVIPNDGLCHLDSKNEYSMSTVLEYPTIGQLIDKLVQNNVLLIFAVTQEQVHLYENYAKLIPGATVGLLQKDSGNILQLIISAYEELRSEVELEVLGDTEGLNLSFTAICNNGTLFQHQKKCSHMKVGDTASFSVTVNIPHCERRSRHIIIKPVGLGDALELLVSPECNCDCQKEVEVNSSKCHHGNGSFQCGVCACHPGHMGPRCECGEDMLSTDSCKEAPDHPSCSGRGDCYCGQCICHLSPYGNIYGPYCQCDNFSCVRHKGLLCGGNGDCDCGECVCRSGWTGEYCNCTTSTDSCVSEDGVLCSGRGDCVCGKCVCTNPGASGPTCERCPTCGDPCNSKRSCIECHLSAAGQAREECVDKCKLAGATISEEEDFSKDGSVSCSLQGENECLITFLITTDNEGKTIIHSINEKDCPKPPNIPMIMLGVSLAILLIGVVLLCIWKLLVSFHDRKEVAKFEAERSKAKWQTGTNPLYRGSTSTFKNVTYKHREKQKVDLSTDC
T1 sequence (P06756 31-992, chain 1 of 2): as the sequence (P06756 31-992, chain 1 of 2) above
T1 sequence (P26012 43-684, chain 2 of 2): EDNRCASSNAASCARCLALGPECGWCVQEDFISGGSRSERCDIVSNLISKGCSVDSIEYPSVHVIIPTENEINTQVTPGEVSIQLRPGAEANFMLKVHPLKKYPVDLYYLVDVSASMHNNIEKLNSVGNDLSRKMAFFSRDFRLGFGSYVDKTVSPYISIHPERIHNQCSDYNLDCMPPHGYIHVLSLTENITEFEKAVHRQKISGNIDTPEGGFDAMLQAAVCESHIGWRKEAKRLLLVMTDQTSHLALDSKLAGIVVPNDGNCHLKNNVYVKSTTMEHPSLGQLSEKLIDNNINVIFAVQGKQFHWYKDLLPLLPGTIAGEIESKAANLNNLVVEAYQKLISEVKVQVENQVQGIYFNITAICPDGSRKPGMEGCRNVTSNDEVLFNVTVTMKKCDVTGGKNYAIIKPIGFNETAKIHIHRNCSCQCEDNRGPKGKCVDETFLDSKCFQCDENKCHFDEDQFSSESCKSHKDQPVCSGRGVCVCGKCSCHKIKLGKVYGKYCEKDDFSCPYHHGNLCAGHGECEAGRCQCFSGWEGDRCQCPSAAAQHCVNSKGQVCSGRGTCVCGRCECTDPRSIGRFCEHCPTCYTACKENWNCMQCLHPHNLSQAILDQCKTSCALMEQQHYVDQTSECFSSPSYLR

“cyclo(RTDLdALR-Abu-Abu) (cyclo(RTDL[dD]ALR[Abu][Abu]); SMILES CC[C@@H]1NC(=O)[C@H](CCCNC(=N)N)NC(=O)[C@H](CC(C)C)NC(=O)[C@H](C)NC(=O)[C@@H](CC(=O)O)NC(=O)[C@H](CC(C)C)NC(=O)[C@H](CC(=O)O)NC(=O)[C@H]([C@@H](C)O)NC(=O)[C@H](CCCNC(=N)N)NC(=O)[C@H](CC)NC1=O)”: in the experiment with αvβ6, the 50% inhibitory concentration (IC50) – broadly, the concentration needed to halve the response being measured – is roughly 1 nM.

B1: linear peptide RTDLDSLRT (peptide)
peptide: RTDLDSLRT
notes: also called control peptide (plasma stability)
For B1, the IC50 in experiment [1] lay in the range of 8 to 100 nM; in experiment [2], 6 to 33 nM.

B2: Compound 8, cyclic peptide A R G D L D L p P (peptide)
peptide: cyclo(ARGDLDL[dP]P)
SMILES: CC(C)C[C@@H]1NC(=O)[C@H](CC(=O)O)NC(=O)CNC(=O)[C@H](CCCNC(=N)N)NC(=O)[C@H](C)NC(=O)[C@@H]2CCCN2C(=O)[C@H]2CCCN2C(=O)[C@H](CC(C)C)NC(=O)[C@H](CC(=O)O)NC1=O
notes: Comparative compound (*)
With B2, the half-maximal inhibitory concentration (IC50) in experiment [3] turned out to be 2.4 nM; in experiment [4], 14.7 nM. Also, the Ratio in experiment [5] was 6.1.
